From US20190309078A1 (Hoffmann-La Roche, published 2019) come the findings set out here.

For this experiment, the target named is human CSF-1R fragment D1-D3 (human, UniProt P07333 20-311). In words: SPR. Here is the method: The binding of […] anti-CSF-1R antibodies to human CSF-1R fragment D1-D3 (SEQ ID NO:13) was measured as described in Example 10 of WO2011/070024.
For orientation: SPR reads the build-up and loss of mass on a sensor chip optically.

B1: emactuzumab (antibody, V domains shown)
VH: QVQLVQSGAEVKKPGASVKVSCKASGYTFTSYDISWVRQAPGQGLEWMGVIWTDGGTNYAQKLQGRVTMTTDTSTSTAYMELRSLRSDDTAVYYCARDQRLYFDVWGQGTTVTVSS
VL: DIQMTQSPSSLSASVGDRVTITCRASEDVNTYVSWYQQKPGKAPKLLIYAASNRYTGVPSRFSGSGSGTDFTLTISSLQPEDFATYYCQQSFSYPTFGQGTKLEIK
notes: also called anti-CSF-1R antibody emactuzumab; <CSF-1R> MAb
With B1, the binding result is on record as “no binding”.
